Consider 77 sequences from the supplement of paper PMC7877785.

A short description of the data set: self-splicing fitness, log relative to wild type (ln ratio); higher = more splicing; Tetrahymena group I intron in knt gene, E. coli kanamycin selection, DiMSum; sequences stand for … in CUCUCU…GGAGGGAAAAGUUAUCAGGCAUGCACCUGGUAGCUAGUCUUUAAACCAAUAGAUUGCAUCGGUUUAAAAGGCAAGACCGUCAAAUUGCGGGAAAGGGGUCAACAGCCGUUCAGUACCAAGUCUCAGGGGAAACUUUGAGAUGGCCUUGCAAAGGGUAUGGUAAUAAGCUGACGGACAUGGUCCUAACCACGCAGCCAAGUCCUAAGUCAACAGAUCUUCUGUUGAUAUGGAUGCAGUUCACAGACUAAAUGUCGGUCGGGGAAGAUGUAUUCUUCUCAUAAGAUAUAGUCGGACCUCUCCUUAAUGGGAGCUAGCGGAUGAAGUGAUGCAACACUGGAGCCGCUGGGAACUAAUUUGUAUGCGAAAGUAUAUUGAUUAGUUUUGGAGUACUCGUGGUCG
The essentials: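 Fitness was computed with DiMSum as the error-weighted combination of replicate fold changes, kanamycin versus none, each normalised to wild type. The library randomised all eight intron nucleotides of the P1ex region, with the intron placed in the knt kanamycin-resistance gene on pET-22b(+) in E. coli BL21(DE3). Six replicate transformations were grown overnight at 37°C or 30°C on LB agar with or without 25 μg/mL kanamycin, plus 100 μg/mL carbenicillin, 50 μM IPTG and 0.2% rhamnose. Pooled colonies were amplicon-sequenced on an Illumina HiSeq 2500.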

± gives the uncertainty stated by the source.

For CCCGAGCAAUAUUACGAGGG, the “self-splicing fitness (ln)” value reads like this: (30 °C) -4.84 ± 0.36; (37 °C) -2.58 ± 0.22. The corresponding values for CCCGAGCAAUAUUACGAGUG are -3.04 ± 0.17 and -1.99 ± 0.13. The corresponding values for CCCGAGCAAUAUUACGAUCC are -2.76 ± 0.24 and -2.71 ± 0.27. With CCCGAGCAAUAUUACGCAAG, the “self-splicing fitness (ln)” value (30 °C) is -2.73 ± 0.27. Turning to CCCGAGCAAUAUUACGCAUG, the “self-splicing fitness (ln)” value was -3.7 ± 0.15 (30 °C) and -2.64 ± 0.15 (37 °C).

Consider CCCGAGCAAUAUUACGCCGG, for which the “self-splicing fitness (ln)” value reads like this: (30 °C) -3.9 ± 0.37; (37 °C) -2.23 ± 0.34. On to CCCGAGCAAUAUUACGCCUG, for which the “self-splicing fitness (ln)” value (30 °C) is -4.16 ± 0.39. In the case of CCCGAGCAAUAUUACGCGAU, the “self-splicing fitness (ln)” value was -1.12 ± 0.19 (30 °C) and -2.5 ± 0.34 (37 °C). Consider CCCGAGCAAUAUUACGCUCA, for which the “self-splicing fitness (ln)” value reads like this: (30 °C) -2.87 ± 0.32; (37 °C) -2.7 ± 0.36. On the same counts, the results for CCCGAGCAAUAUUACGGAAG are -3.91 ± 0.24 and -2.29 ± 0.15. On the same counts, the results for CCCGAGCAAUAUUACGGCGA are -2.7 ± 0.2 and -1.19 ± 0.12.

With CCCGAGCAAUAUUACGGUCC, the “self-splicing fitness (ln)” value is, setting by setting: (30 °C) -2.99 ± 0.26; (37 °C) -2.61 ± 0.22. With CCCGAGCAAUAUUACGUCAC, the “self-splicing fitness (ln)” value (30 °C) was -2.9 ± 0.37 and the “self-splicing fitness (ln)” value (37 °C) is -2.27 ± 0.49. On the same counts, the results for CCCGAGCAAUAUUACGUCGG are -3.02 ± 0.25 and -2.41 ± 0.32. For CCCGAGCAAUAUUACGUUAC, the “self-splicing fitness (ln)” value (30 °C) was -3.01 ± 0.35 and the “self-splicing fitness (ln)” value (37 °C) was -2.37 ± 0.32.

For CCCUAGCAAUAUUACGACAU, the “self-splicing fitness (ln)” value is, setting by setting: (30 °C) -3.809 ± 0.024; (37 °C) -2.93 ± 0.039. On the same counts, the results for CCCUAGCAAUAUUACGACGC are -3.34 ± 0.32 and -2.53 ± 0.39.

CCCUAGCAAUAUUACGACUC: the “self-splicing fitness (ln)” value was -4.18 ± 0.28 (30 °C) and -2.71 ± 0.24 (37 °C). Consider CCCUAGCAAUAUUACGAUAC, for which the “self-splicing fitness (ln)” value (30 °C) was -2.76 ± 0.38. In the case of CCCUAGCAAUAUUACGAUCA, the “self-splicing fitness (ln)” value was -3.03 ± 0.25 (30 °C) and -2.22 ± 0.24 (37 °C). Turning to CCCUAGCAAUAUUACGAUCC, where the note is “37 °C”, the “self-splicing fitness (ln)” value is -1.26 ± 0.45. With CCCUAGCAAUAUUACGAUGU, the “self-splicing fitness (ln)” value was -3.58 ± 0.22 (30 °C) and -2.55 ± 0.18 (37 °C). Regarding CCCUAGCAAUAUUACGCACC, the “self-splicing fitness (ln)” value (37 °C) is -2.9 ± 0.48. For CCCUAGCAAUAUUACGCCCU, the “self-splicing fitness (ln)” value is -3.61 ± 0.35 (30 °C) and -1.54 ± 0.23 (37 °C). On the same counts, the results for CCCUAGCAAUAUUACGCCGC are -3.7 ± 0.25 and -1.96 ± 0.27.

Turning to CCCUAGCAAUAUUACGCUGA, the “self-splicing fitness (ln)” value was -3.14 ± 0.23 (30 °C) and -2.85 ± 0.38 (37 °C). Consider CCCUAGCAAUAUUACGGGGC, for which the “self-splicing fitness (ln)” value was -3.47 ± 0.15 (30 °C) and -2.15 ± 0.22 (37 °C). On to CCCUAGCAAUAUUACGGUAC, for which the “self-splicing fitness (ln)” value (30 °C) is -4.33 ± 0.34 and the “self-splicing fitness (ln)” value (37 °C) was -3.04 ± 0.32.

On to CCCUAGCAAUAUUACGUAAA, for which the “self-splicing fitness (ln)” value (37 °C) was -2.22 ± 0.32. Consider CCCUAGCAAUAUUACGUAAC, for which the “self-splicing fitness (ln)” value reads like this: (30 °C) -3.66 ± 0.27; (37 °C) -1.33 ± 0.18.

For CCCUAGCAAUAUUACGUACG, the “self-splicing fitness (ln)” value is -2.86 ± 0.18 (30 °C) and -2.81 ± 0.27 (37 °C). On the same counts, the results for CCCUAGCAAUAUUACGUAGC are -2.65 ± 0.17 and -2.75 ± 0.24. The corresponding values for CCCUAGCAAUAUUACGUGCC are -3.52 ± 0.22 and -2.2 ± 0.24.

CCGAAGCAAUAUUACGACAU: the “self-splicing fitness (ln)” value (30 °C) is -3.977 ± 0.028 and the “self-splicing fitness (ln)” value (37 °C) is -2.82 ± 0.04. On the same counts, the results for CCGAAGCAAUAUUACGCAUA are -2.88 ± 0.27 and -3.64 ± 0.31. For CCGAAGCAAUAUUACGCCCU, the “self-splicing fitness (ln)” value (37 °C) is -1.26 ± 0.46. Take CCGAAGCAAUAUUACGCCUA: the “self-splicing fitness (ln)” value was -2.94 ± 0.22 (30 °C) and -2.62 ± 0.28 (37 °C).

Take CCGAAGCAAUAUUACGCGAC: the “self-splicing fitness (ln)” value is -3.1 ± 0.2 (30 °C) and -1.48 ± 0.19 (37 °C). On the same counts, the results for CCGAAGCAAUAUUACGCGCC are -2.58 ± 0.23 and -2.27 ± 0.3. On the same counts, the results for CCGAAGCAAUAUUACGCGUA are -3.7 ± 0.23 and -2.84 ± 0.2. On the same counts, the results for CCGAAGCAAUAUUACGCGUC are -3.28 ± 0.25 and -3.2 ± 0.32. CCGAAGCAAUAUUACGCUAA: the “self-splicing fitness (ln)” value was -3.2 ± 0.34 (30 °C) and -2.7 ± 0.43 (37 °C).

Take CCGAAGCAAUAUUACGCUGC: the “self-splicing fitness (ln)” value (30 °C) is -2.89 ± 0.34 and the “self-splicing fitness (ln)” value (37 °C) is -2.4 ± 0.45. On the same counts, the results for CCGAAGCAAUAUUACGCUUG are -3.79 ± 0.33 and -2.26 ± 0.22. Regarding CCGAAGCAAUAUUACGGAAA, the “self-splicing fitness (ln)” value runs as follows: (30 °C) -3.26 ± 0.26; (37 °C) -3.49 ± 0.31. As to CCGAAGCAAUAUUACGGCAG, the “self-splicing fitness (ln)” value (30 °C) was -2.86 ± 0.15 and the “self-splicing fitness (ln)” value (37 °C) is -1.44 ± 0.16.

Regarding CCGAAGCAAUAUUACGGCGU, the “self-splicing fitness (ln)” value reads like this: (30 °C) -3.6 ± 0.17; (37 °C) -2.79 ± 0.17. On the same counts, the results for CCGAAGCAAUAUUACGGCUC are -3.57 ± 0.32 and -2.81 ± 0.35. On the same counts, the results for CCGAAGCAAUAUUACGGGCU are -4.21 ± 0.23 and -2.36 ± 0.2. The corresponding values for CCGAAGCAAUAUUACGGUUG are -1.84 ± 0.059 and -0.955 ± 0.072. Regarding CCGAAGCAAUAUUACGUAGG, the “self-splicing fitness (ln)” value (30 °C) was -3.15 ± 0.17 and the “self-splicing fitness (ln)” value (37 °C) is -2.65 ± 0.23. On to CCGAAGCAAUAUUACGUAGU, for which the “self-splicing fitness (ln)” value is -3.44 ± 0.17 (30 °C) and -3.21 ± 0.23 (37 °C). On to CCGAAGCAAUAUUACGUCUC, for which the “self-splicing fitness (ln)” value is, setting by setting: (30 °C) -3.9 ± 0.28; (37 °C) -3.47 ± 0.2. On the same counts, the results for CCGAAGCAAUAUUACGUUCU are -3.84 ± 0.26 and -3.37 ± 0.24. On the same counts, the results for CCGCAGCAAUAUUACGAAUA are -3.37 ± 0.38 and -2.62 ± 0.38. Turning to CCGCAGCAAUAUUACGAAUC, the “self-splicing fitness (ln)” value (30 °C) was -1.78 ± 0.17.

In the case of CCGCAGCAAUAUUACGAAUG, the “self-splicing fitness (ln)” value was -1.2 ± 0.063 (30 °C) and -0.305 ± 0.065 (37 °C). On the same counts, the results for CCGCAGCAAUAUUACGAAUU are -3.73 ± 0.19 and -2.51 ± 0.2. On the same counts, the results for CCGCAGCAAUAUUACGAGGC are -3.72 ± 0.19 and -2.65 ± 0.23. In the case of CCGCAGCAAUAUUACGAGUC, the “self-splicing fitness (ln)” value is -3.36 ± 0.26 (30 °C) and -3.29 ± 0.28 (37 °C). The corresponding values for CCGCAGCAAUAUUACGAUCU are -3.81 ± 0.29 and -2.35 ± 0.26.

Turning to CCGCAGCAAUAUUACGAUUA, the “self-splicing fitness (ln)” value is, setting by setting: (30 °C) -3.03 ± 0.23; (37 °C) -2.72 ± 0.29. The corresponding values for CCGCAGCAAUAUUACGCAAC are -3.22 ± 0.19 and -3.07 ± 0.32. On the same counts, the results for CCGCAGCAAUAUUACGCAAU are -3.95 ± 0.18 and -3.67 ± 0.27.

On to CCGCAGCAAUAUUACGCACG, for which the “self-splicing fitness (ln)” value runs as follows: (30 °C) -0.993 ± 0.097; (37 °C) -0.578 ± 0.11.

As for CCGCAGCAAUAUUACGCCUG, the “self-splicing fitness (ln)” value (30 °C) is -1.69 ± 0.13 and the “self-splicing fitness (ln)” value (37 °C) was -1.22 ± 0.16. For the sequence CCGCAGCAAUAUUACGCGAA, the “self-splicing fitness (ln)” value is -2.87 ± 0.18 (30 °C) and -2.5 ± 0.18 (37 °C). For CCGCAGCAAUAUUACGCGAC, the “self-splicing fitness (ln)” value by setting is: (30 °C) -2.84 ± 0.17; (37 °C) -2.09 ± 0.26. On the same counts, the results for CCGCAGCAAUAUUACGCUUA are -3.07 ± 0.17 and -2.9 ± 0.25. Regarding CCGCAGCAAUAUUACGGAUG, the “self-splicing fitness (ln)” value was -1.99 ± 0.12 (30 °C) and -1.54 ± 0.13 (37 °C). The corresponding values for CCGCAGCAAUAUUACGGCAG are -1.4 ± 0.081 and 0.0999 ± 0.098. The corresponding values for CCGCAGCAAUAUUACGGCCG are -0.461 ± 0.12 and 0.198 ± 0.15. In the case of CCGCAGCAAUAUUACGGCGU, the “self-splicing fitness (ln)” value reads like this: (30 °C) -2.44 ± 0.081; (37 °C) -1.27 ± 0.096. Regarding CCGCAGCAAUAUUACGUCAC, the “self-splicing fitness (ln)” value is -4.14 ± 0.19 (30 °C) and -2.84 ± 0.22 (37 °C). For CCGCAGCAAUAUUACGUCAU, the “self-splicing fitness (ln)” value reads like this: (30 °C) -3.18 ± 0.15; (37 °C) -2.25 ± 0.2. On the same counts, the results for CCGCAGCAAUAUUACGUCUC are -3.13 ± 0.24 and -2.56 ± 0.26.

For CCGCAGCAAUAUUACGUGAG, the “self-splicing fitness (ln)” value (30 °C) was -0.587 ± 0.038 and the “self-splicing fitness (ln)” value (37 °C) is -0.367 ± 0.051.
